Assay results taken from article PMC10187114, “Structure of the endosomal Commander complex linked to Ritscher-Schinzel syndrome” (Cell, 2023).
Residue numbers refer to the chain shown, from its start. Numbers in names are those of the source. Where “and” joins values, the source holds several entries; their conditions need not be identical. Equal entries are not always repeated.

B1: CC1-CC2 complex (CCDC22(325–485) + CCDC93(310–488)), wild type (complex, human)
chain 1: VTWAAQEQELESLREQLEGVNRSIEEVEADMKTLGVSFVQAESECRHSKLSTAEREQALRLKSRAVELLPDGTANLAKLQLVVENSAQRVIHLAGQWEKHRVPLLAEYRHLRKLQDCRELESSRRLAEIQELHQSVRAAAEEARRKEEVYKQLMSELETLP
chain 2: GTSQLHRRKVISLNKQIAQKTKHLEELRASHTSLQARYNEAKKTLTELKTYSEKLDKEQAALEKIESKADPSILQNLRALVAMNENLKSQEQEFKAHCREEMTRLQQEIENLKAERAPRGDEKTLSSGEPPGTLTSAMTHDEDLDRRYNMEKEKLYKIRLLQARRNREIAILHRKIDEV
notes: CCDC22, human, CC1 and CC2 coiled-coil regions; CCDC93, human, CC1 and CC2 coiled-coil regions; also called CCDC22-CCDC93; source: E. coli BL21 (DE3), co-expressed (pRSF-duet), purified (Talon, gel filtration)
B2: CC1-CC2 complex, CCDC22 (V360E) (complex, human)
chain 1: B1 chain 1 with V36E
chain 2: B1 chain 2
notes: CCDC22, human, CC1 and CC2 coiled-coil regions; CCDC93, human, CC1 and CC2 coiled-coil regions; source: E. coli BL21 (DE3), co-expressed (pRSF-duet), purified (Talon, gel filtration)
B3: CC1-CC2 complex, CCDC93 (M392R) (complex, human)
chain 1: B1 chain 1
chain 2: B1 chain 2 with M83R
notes: as for B2
B4: VPS35L (16-38) peptide (peptide)
peptide: EFASCRLEAVPLEFGDYHPLKPI
notes: VPS35L, human, residues 16-38; also called VPS35L peptide (Glu16-Ile38); source: synthetic peptide (Genscript)

Experiments:
DENND10 (recombinant) = molecular target: T1, DENND10 (recombinant) (human, UniProt Q8TCE6 1-357); test: ITC; 50 μM DENND10 titrated into 10 μM wild type or mutant CCDC22(325–485)+CCDC93(310–488) complex, 100 mM Tris pH 7.4, 300 mM NaCl, 25°C, single site model; settings: both partners purified
T1 construct: DENND10/FAM45A, human; also called FAM45A; recombinant DENND10; source: E. coli BL21 (DE3) (pGEX6P-1), purified (glutathione resin, gel filtration)

VPS29 (recombinant) = VPS29 (recombinant) (human, UniProt Q9UBQ0 1-182); test: ITC; VPS35L peptides at 600 μM titrated into 20 μM VPS29, 100 mM Tris pH 7.4, 300 mM NaCl, 25°C, single site model; settings: both partners purified

T1 sequence (Q8TCE6 whole entry): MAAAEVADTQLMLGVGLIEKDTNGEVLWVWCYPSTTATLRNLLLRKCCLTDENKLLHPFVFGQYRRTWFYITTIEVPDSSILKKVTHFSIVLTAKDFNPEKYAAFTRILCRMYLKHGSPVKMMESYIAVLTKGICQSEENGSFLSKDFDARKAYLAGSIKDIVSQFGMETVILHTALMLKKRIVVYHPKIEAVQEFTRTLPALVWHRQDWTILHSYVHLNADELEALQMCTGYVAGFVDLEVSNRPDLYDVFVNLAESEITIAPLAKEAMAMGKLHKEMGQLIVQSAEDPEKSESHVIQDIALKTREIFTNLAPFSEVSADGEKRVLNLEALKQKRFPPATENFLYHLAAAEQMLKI

Binder | Kd (DENND10 (recombinant)) | Kd (VPS29 (recombinant)) [nM]
B1 | 34 nM and 28 nM | –
B2 | 47.9 ± 3.5 nM | –
B3 | 89.1 ± 10 nM | –
B4 | – | 1870
